Data from PMC1839166, “Type III Effector Activation via Nucleotide Binding, Phosphorylation, and Host Target Interaction” (PLoS Pathogens, 2007).

Columns and labels:
[1] = biological target: T1, avirulence protein B (AvrB), wild type (Pseudomonas syringae pv. glycinea), P13835; assay: ITC; VP-ITC microcalorimeter; RIN4_(142–176) peptide (50 to 450 μM) titrated in 6-μl injections into 5 to 25 μM wild-type or variant AvrB, stirring at 255 rpm; wild-type AvrB 6 μM with full-length RIN4 120 μM; nonbinding confirmed at as much as 25 μM and 450 μM; conditions: remark: other sources report otherwise
[2] = biological target: T1, avirulence protein B (AvrB), wild type …; assay: as above; conditions: remark: other sources report otherwise; remark: listed apart in the source

T1 sequence (P13835 whole entry): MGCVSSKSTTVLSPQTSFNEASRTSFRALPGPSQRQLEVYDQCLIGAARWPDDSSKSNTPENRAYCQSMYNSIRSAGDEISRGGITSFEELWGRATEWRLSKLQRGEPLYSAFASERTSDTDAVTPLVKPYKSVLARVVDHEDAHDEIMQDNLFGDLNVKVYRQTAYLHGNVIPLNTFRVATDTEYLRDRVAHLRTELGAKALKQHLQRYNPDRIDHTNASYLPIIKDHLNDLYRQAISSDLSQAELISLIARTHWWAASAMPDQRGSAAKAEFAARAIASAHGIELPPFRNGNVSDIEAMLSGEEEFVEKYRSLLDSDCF

B1: full-length RIN4, Q8GYN5 1-211 (natural protein)
chain: MARSNVPKFGNWEAEENVPYTAYFDKARKTRAPGSKIMNPNDPEYNSDSQSQAPPHPPSSRTKPEQVDTVRRSREHMRSREESELKQFGDAGGSSNEAANKRQGRASQNNSYDNKSPLHKNSYDGTGKSRPKPTNLRADESPEKVTVVPKFGDWDENNPSSADGYTHIFNKVREERSSGANVSGSSRTPTHQSSRNPNNTSSCCCFGFGGK
B1 showed a Kd [1] of 4000 nM and a Kd [2] of 1000 nM.
